Source: the DeepSol protein solubility set

Assay: soluble on expression in E. coli; label from the status in PepcDB or PDB records

Sequence | soluble on expression in E. coli
MHSVARENLQAYLHSYKLSSNEPGIKLMHNSQRDDQHRKDVEHFAALRALQHSKRKHVAFAVQAMRDYDGSLDEKSPLKDHTISFNTNDFIHIHTKFNSDWWIGRIVRSHSEFGFVPTARRLANYMVSDEDPPVKHNTSDHQDRSIWEPKCPYKVVPSSRPIVLLGPTLQHSRLTQLLHLALREEILKHFGKNMKYVKSDIGSGQQSGDRKGARWLRGLRDYDRGQDENQEVELIMRMTSKLHLLLVDSPHIHTPDDVQHLPLSPIFFLIRVSDNKILAKLLRNTGTTRMAAEIEVANVLKTMNDDRVGGHDDEQLIARGFEMVIEENGLREATRRIISYLEKYIHALHYHHKDDEI | not soluble
MGHHHHHHSHMRKIDLCLSSEGSEVILATSSDEKHPPENIIDGNPETFWTTTGMFPQEFIICFHKHVRIERLVIQSYFVQTLKIEKSTSKEPVDFEQWIEKDLVHTEGQLQNEEIVAHGSATYLRFIIVSAFDHFASVHSVSAEGTVVSNLSS | soluble
MGSDKIHHHHHHMMFVVNRHINYTDICVAKCPLCAFNNREGYLLSPEEILRKVREVDGITEVHIVGGHNPEVGVEYFEEVFRRIKREKPEVVIKALTATEVYYYAKKEKMSIREFLSRLKDAGLQAMPGGGAEILVDSVRRKISPNKCSSDEWLRVMKIAHELGIKSNATMLFGHVEEIRHRAIHLYRLRKLQEKTGGFVSFIPLVYHPENNPLGKIVREKTNPVDILKTIAVSRIALDNFRSVRAYWVMLGEKLTEVALRFGANDIDGTVVEEKVTHAAGAETPAGLTVERLVEICRSAGKRVGQRDTFCNILKWYA | not soluble
MSLCELLGMSANVPTDIVFSFTGLMQRGGGTGPHRDGWGIAFYEGRGVRLFQDPLASVDSEVARLVQRFPIKSETVIGHIRQANVGKVGLSNTHPFIRELGGRYWTFAHNGQLADFQPKPGFYRPVGETDSEAAFCDLLNRVRRAFPEPVPVEVLLPVLISACDEYRKKGVFNALISDGDWLFTFCSSKLAYITRRAPFGPARLKDADLTVDFHAETTPDDVVTVIATEPLTDNENWTLQQSGEWVLWWGGEVLAKGEGGSHHHHHH | soluble
MGSDKIHHHHHHEEPCPENGRVTFTVAQTRATQEGTFEKGNSIGVFAIEPKTGVYWATNNKYTYDGRAFKPATEEDNIIVTVGTDLDFYVYYPFKEGQTDITAISHAIGDQQEKSGWLSADFLTASYTDVIQDYTIPLHFEHRLSTVEVRVEGSDRVDGARMENVKYGSRFNLLTGKTVTDETRGSYAMYRYSSGNLTTVFRMTIPAQTLTTTSNYITLTGTPDMKLRGTSDMTTEPGRIHNYRIDYKIRITVLDYPQGGSTTGAGLYDMGSTCTVTASVNGGYEFAGWYEDGRIVSNDTRYSFEVLSDRTLEPRYRNYGGWSVTLTANPSVIGWQGGRSSLVAGASRGVFVNGVAENTQTAVPSLSGGAEGFLLSGNTVTVSENPSGSSRSCVFTASHGGSSATATITQEGSPVSYYFSYADGGTSHTEYPDDSSAGSFILDITSYKKTGNSTKALSWNASGDSWIHVNGSSVSYDENPAKERRTGLVTLKQDESGKTLSLKIVQPGKTSIDIEQ | not soluble
MKNTFLYFRWEDLHGEIGVDSFNLLRASYSNLSEQQLVELIKELISIEREDIAAKFDIHLSENAPVFDERQHVVYKGVAGDMNYKDMLLSLVTALDLTNTLDHVQNILSLAKCLRSFDREIFARFAKDIAEEVYYSLKLEHHHHHH | soluble
MQDSRPHPHDWNVSTDEAKRIQRRLASEVTERALPDGGETVAGIDVSVRDDTAQAAVSVLRLPELDVVDEATHRCEVPFPYVPGLLSFREMPAVLPALERLHSTPDVFVTDSHGAAHPRRFGLACHLGVLLDAPAIGVAKSILVGAPQGELGPEKGSRVPLVDDGETVGTVLRTRTDVNPVYVSVGHRCTLDGAADLMLDCSPRYKIPEPTRQAHKLSRAEGAAALEHHHHHH | soluble
SMAFKIQLDTLGQLPGLLSIYTQISLLYPVSDSSQYPTIVSTFEQGLKRFSEAVPWVAGQVKAEGISEGNTGTSFIVPFEDVPRVVVKDLRDDPSAPTIEGMRKAGYPMAMFDENIIAPRKTLPIGPGTGPDDPKPVILLQLNFIKGGLILTVNGQHGAMDMVGQDAVIRLLSKACRNDPFTEEEMTAMNLDRKTIVPYLENYTIGPEVDHQIVKADVAGGDAVLTPVSASWAFFTFSPKAMSELKDAATKTLDASTKFVSTDDALSAFIWKSASRVRLERIDGSAPTEFCRAVDARPAMGVSNNYPGLLQNMTYHNSTIGEIANESLGATASRLRSELDPASMRQRTRGLATYLHNNPDKSNVSLTADADPSTSVMLSSWAKVGLWDYDFGLGLGKPETVRRPIFEPVESLMYFMPKKPDGEFCAALSLRDEDMDRLKADKEWTKYAQYVG | soluble
AIARGPEPGPQPTMEGDVLDTLEALGYKGPLLEEQALTKAAEGGLSSPEFSELCIWLGSQIKSLCNLEESITSAGRDDLESFQLEISGFLKEMACPYSVLISGDIKDRLKKKEDCLKLLLFLSTELQASQILQNKKHKNSQLDKNSEVYQEVQAMFDTLGIPKSTTSDIPHMLNQVESKVKDILSKVQKNHVGKPLLKMDLNSEQAEQLERINDALSCEYECRRRMLMKRLDVTVQSFGWSDRAKVKTDDIARIYQPKRYALSPKTTITMAHLLAAREDLSKIIRTSSGTSREKTACAINKVGVSFSTVENELMISYLMFLQILVYFSFMSW | soluble
SAANVAHGLQQNVLYVDSNGGLTASRLLQLLQAKTQDEEEQAEALRRIQVVHAFDIFQMLDVLQELRGTVAQQVTGSSGTVKVVVVDSVTAVVSPLLGGQQREGLALMMQLARELKTLARDLGMAVVVTNHITRDRDSGRLKPALGRSWSFVPSTRILLDTIEGAGASGGRRMACLAKSSRQPTGFQEMVDIGTWGTSEQSATLQGDQT | soluble
MGIRPSADEQDQCFMTRITIVTDAWHPQVNGVVRSIENTNTELARLGVDVRMVTPQSFYSIPCPTYPEIRLSVAGYRRVAVEIEKSQPSFVHIATEGPLGFMARRWCVKNHMRFSTSYHTRFPEYVAARFPVPESWLYAFVRWFHNGGNTCMVATPSLETELEARGVRNLKRWSRGIDAELFHPRTKTKLPFDLPRPIFMTVGRVAVEKNLPEFLDLDLPGSKIVIGDGPARYELQEKYPDVLFTGIKTGEELADAYAQADVFVFPSKTDTFGNTILEALASGVPVAAFPVTGPIDILGGNPAAGALDNNLRDACLAALHCSPQAALALSKSYSWEKASRQFLDNVIHAAGKSLPLLSRSRLAAAALEHHHHHH | not soluble
MASDMPLVQLPQRGERINVPLVQSRSEDQRLVTSARQTDKIDADDLVALANQLNSARQLVKGRACDRLKQIADQMEQLHMAARAVLEDAQRDEHLHNVPCNMEKQPGRIYHLYQKQGSMNKYFSMLAPNEWGYQEKKEEYLGSYRLEYDRSWTPVGEMDRKDEEVARLQQLLQREGPVALRGNPNF | not soluble
MEESINQNPEAMEALISNLFGNISSLKSAYIELQSAHTPYDPEKIQAADKVVISELKNLSEMKHFYRENNPKPVCVSPQDSRLAAEIQEQQSLLKTYEVMVKKFQSEIQNKDSEITQMLQKIEEANQKRLKLEKNLKLRGMSTNQGSGGDGNLQFPDLTTELFVSTYEAAAKVVHDFSKPLINMMKAAGWDLDTAANSIEPDVVYAKRPHKEYAFESYICQRMFSGFQQKNFSVNSESATVMADDDTDTFFRQFLALKDMDPLDALDQRDYVTGGGHPRTAFYQAFLKLAKSIWILHKLAYSFDPAAKIFQVKKGSEFSDSYMESVVKNIH | soluble
MELQDLELQLEERLLGLEEQLRAVRMPSPFRSSALMGMCGSRSTDNLSCPSPLNVMEPVTELMQEQSYLKSELGLGLGEMGFEIPPGESSESVFSKQRSESSSICSGPSHANRRTGVPSTASVGKSKTPLVARKKVFRASVALTPTAPSRTGSVQTPPDLESSEEVDAAEGAPEVVGPKSESEVEEGHGKLPSMPAAEEMHKNVEQDELQQVIREIKESIVGEIRREIVSGLLAAVSSSKASNSKQDYHLEHHHHHH | not soluble
MGSDKIHHHHHHMEEGSAGMGMSQNNSTLVAPQPKGIIDPATGKPVGSNDAYFTEINDELADKGFLVTSTDELITWARTGSLMWMQFGLACCAVEGLMQASGPRYDMERFGVAPRASPRQSDVMIVAGTLTNKMAPALRKVYDQMPEPRYVISMGSCANGGGYYHYSYAVVRGCDRVVPVDIYVPGCPPTAEALLYGVLLLQKKIRRTGTIER | not soluble
